Molecular target: T1, CD3ε homodimer protein (human, UniProt P07766 23-126, limits assumed, sulfo-tag or biotin label in the ECL assays; amine-coupled to the chip in SPR)
T1 construct: also called human CD3ε homodimer protein; CD3 (CD3ε)
Test: SPR Biacore T200; CD3ε homodimer on CM4 chip;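 further: Single-residue variant antibodies injected as analyte over CD3ε homodimer immobilized by amine coupling, run at 25 °C in HBS-EP+ buffer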

T1 sequence (P07766 23-126 limits assumed): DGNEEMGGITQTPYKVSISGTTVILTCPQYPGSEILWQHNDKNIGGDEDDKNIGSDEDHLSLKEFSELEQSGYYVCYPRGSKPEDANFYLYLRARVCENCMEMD

| Binder | ratio of amounts bound Z=Y/X (altered form / CE115HA000) |
| --- | --- |
| CE115HA000 T57I one-arm antibody (antibody, human IgG1, kappa, L234A L235A, N297A, name in Kabat numbering) heavy: QVQLVESGGGVVQPGRSLRLSCAASGFTFSNAWMHWVRQAPGKGLEWVAQIKAKSNNYAIYYAESVKGRFTISRDDSKNSLYLQMNSLKTEDTAVYYCRYVHYGAYYGVDAWGQGTTVTVSSASTKGPSVFPLAPSSKSTSGGTAALGCLVKDYFPEPVTVSWNSGALTSGVHTFPAVLQSSGLYSLSSVVTVPSSSLGTQTYICNVNHKPSNTKVDKKVEPKSCDKTHTCPPCPAPEAAGGPSVFLFPPKPKDTLMISRTPEVTCVVVDVSHEDPEVKFNWYVDGVEVHNAKTKPREEQYASTYRVVSVLTVLHQDWLNGKEYKCKVSNKALPAPIEKTISKAKGQPREPQVYTLPPSRCELTKNQVSLSCAVKGFYPSDIAVEWESNGQPENNYKTTPPVLDSDGSFFLVSKLTVDKSRWQQGNVFSCSVMHEALHNHYTQKSLSLSPDYKDDDDK EPKSSDKTHTCPPCPAPELLGGPSVFLFPPKPKDTLMISRTPEVTCVVVDVSHEDPEVKFNWYVDGVEVHNAKTKPREEQYNSTYRVVSVLTVLHQDWLNGKEYKCKVSNKALPAPIEKTISKAKGQPREPQVCTLPPSRDELTKNQVSLWCLVKGFYPSDIAVEWESNGQPENNYKTTPPVLDSDGSFFLYSKLTVDKSRWQQGNVFSCSVMHEALHNRYTQKSLSLSP light: DIVMTQSPLSLPVTPGEPASISCRSSQSLVHSNRNTYLHWYQQKPGQAPRLLIYKVSNRFSGVPDRFSGSGSGTDFTLKISRVEAEDVGVYYCGQGTQVPYTFGQGTKLEIKRTVAAPSVFIFPPSDEQLKSGTASVVCLLNNFYPREAKVQWKVDNALQSGNSQESVTEQDSKDSTYSLSSTLTLSKADYEKHKVYACEVTHQGLSSPVTKSFNRGEC | 0.61 |
| CE115HA000 T57K one-arm antibody (antibody, human IgG1, kappa, L234A L235A, N297A, name in Kabat numbering) heavy: QVQLVESGGGVVQPGRSLRLSCAASGFTFSNAWMHWVRQAPGKGLEWVAQIKAKSNNYAKYYAESVKGRFTISRDDSKNSLYLQMNSLKTEDTAVYYCRYVHYGAYYGVDAWGQGTTVTVSSASTKGPSVFPLAPSSKSTSGGTAALGCLVKDYFPEPVTVSWNSGALTSGVHTFPAVLQSSGLYSLSSVVTVPSSSLGTQTYICNVNHKPSNTKVDKKVEPKSCDKTHTCPPCPAPEAAGGPSVFLFPPKPKDTLMISRTPEVTCVVVDVSHEDPEVKFNWYVDGVEVHNAKTKPREEQYASTYRVVSVLTVLHQDWLNGKEYKCKVSNKALPAPIEKTISKAKGQPREPQVYTLPPSRCELTKNQVSLSCAVKGFYPSDIAVEWESNGQPENNYKTTPPVLDSDGSFFLVSKLTVDKSRWQQGNVFSCSVMHEALHNHYTQKSLSLSPDYKDDDDK EPKSSDKTHTCPPCPAPELLGGPSVFLFPPKPKDTLMISRTPEVTCVVVDVSHEDPEVKFNWYVDGVEVHNAKTKPREEQYNSTYRVVSVLTVLHQDWLNGKEYKCKVSNKALPAPIEKTISKAKGQPREPQVCTLPPSRDELTKNQVSLWCLVKGFYPSDIAVEWESNGQPENNYKTTPPVLDSDGSFFLYSKLTVDKSRWQQGNVFSCSVMHEALHNRYTQKSLSLSP light: DIVMTQSPLSLPVTPGEPASISCRSSQSLVHSNRNTYLHWYQQKPGQAPRLLIYKVSNRFSGVPDRFSGSGSGTDFTLKISRVEAEDVGVYYCGQGTQVPYTFGQGTKLEIKRTVAAPSVFIFPPSDEQLKSGTASVVCLLNNFYPREAKVQWKVDNALQSGNSQESVTEQDSKDSTYSLSSTLTLSKADYEKHKVYACEVTHQGLSSPVTKSFNRGEC | 1.32 |
| CE115HA000 V11L one-arm antibody (antibody, human IgG1, kappa, L234A L235A, N297A, name in Kabat numbering) heavy: QVQLVESGGGLVQPGRSLRLSCAASGFTFSNAWMHWVRQAPGKGLEWVAQIKAKSNNYATYYAESVKGRFTISRDDSKNSLYLQMNSLKTEDTAVYYCRYVHYGAYYGVDAWGQGTTVTVSSASTKGPSVFPLAPSSKSTSGGTAALGCLVKDYFPEPVTVSWNSGALTSGVHTFPAVLQSSGLYSLSSVVTVPSSSLGTQTYICNVNHKPSNTKVDKKVEPKSCDKTHTCPPCPAPEAAGGPSVFLFPPKPKDTLMISRTPEVTCVVVDVSHEDPEVKFNWYVDGVEVHNAKTKPREEQYASTYRVVSVLTVLHQDWLNGKEYKCKVSNKALPAPIEKTISKAKGQPREPQVYTLPPSRCELTKNQVSLSCAVKGFYPSDIAVEWESNGQPENNYKTTPPVLDSDGSFFLVSKLTVDKSRWQQGNVFSCSVMHEALHNHYTQKSLSLSPDYKDDDDK EPKSSDKTHTCPPCPAPELLGGPSVFLFPPKPKDTLMISRTPEVTCVVVDVSHEDPEVKFNWYVDGVEVHNAKTKPREEQYNSTYRVVSVLTVLHQDWLNGKEYKCKVSNKALPAPIEKTISKAKGQPREPQVCTLPPSRDELTKNQVSLWCLVKGFYPSDIAVEWESNGQPENNYKTTPPVLDSDGSFFLYSKLTVDKSRWQQGNVFSCSVMHEALHNRYTQKSLSLSP light: DIVMTQSPLSLPVTPGEPASISCRSSQSLVHSNRNTYLHWYQQKPGQAPRLLIYKVSNRFSGVPDRFSGSGSGTDFTLKISRVEAEDVGVYYCGQGTQVPYTFGQGTKLEIKRTVAAPSVFIFPPSDEQLKSGTASVVCLLNNFYPREAKVQWKVDNALQSGNSQESVTEQDSKDSTYSLSSTLTLSKADYEKHKVYACEVTHQGLSSPVTKSFNRGEC | 1 |
| CE115HA000 T57N one-arm antibody (antibody, human IgG1, kappa, L234A L235A, N297A, name in Kabat numbering) heavy: QVQLVESGGGVVQPGRSLRLSCAASGFTFSNAWMHWVRQAPGKGLEWVAQIKAKSNNYANYYAESVKGRFTISRDDSKNSLYLQMNSLKTEDTAVYYCRYVHYGAYYGVDAWGQGTTVTVSSASTKGPSVFPLAPSSKSTSGGTAALGCLVKDYFPEPVTVSWNSGALTSGVHTFPAVLQSSGLYSLSSVVTVPSSSLGTQTYICNVNHKPSNTKVDKKVEPKSCDKTHTCPPCPAPEAAGGPSVFLFPPKPKDTLMISRTPEVTCVVVDVSHEDPEVKFNWYVDGVEVHNAKTKPREEQYASTYRVVSVLTVLHQDWLNGKEYKCKVSNKALPAPIEKTISKAKGQPREPQVYTLPPSRCELTKNQVSLSCAVKGFYPSDIAVEWESNGQPENNYKTTPPVLDSDGSFFLVSKLTVDKSRWQQGNVFSCSVMHEALHNHYTQKSLSLSPDYKDDDDK EPKSSDKTHTCPPCPAPELLGGPSVFLFPPKPKDTLMISRTPEVTCVVVDVSHEDPEVKFNWYVDGVEVHNAKTKPREEQYNSTYRVVSVLTVLHQDWLNGKEYKCKVSNKALPAPIEKTISKAKGQPREPQVCTLPPSRDELTKNQVSLWCLVKGFYPSDIAVEWESNGQPENNYKTTPPVLDSDGSFFLYSKLTVDKSRWQQGNVFSCSVMHEALHNRYTQKSLSLSP light: DIVMTQSPLSLPVTPGEPASISCRSSQSLVHSNRNTYLHWYQQKPGQAPRLLIYKVSNRFSGVPDRFSGSGSGTDFTLKISRVEAEDVGVYYCGQGTQVPYTFGQGTKLEIKRTVAAPSVFIFPPSDEQLKSGTASVVCLLNNFYPREAKVQWKVDNALQSGNSQESVTEQDSKDSTYSLSSTLTLSKADYEKHKVYACEVTHQGLSSPVTKSFNRGEC | 0.97 |

— patent US20260049138A1 (Chugai, published 2026)
